Results taken from patent US20180117147A1.

Columns and labels:
[1] = target: human KIR2DL3 expressed on NK and T lymphocytes of KIR2DL3 transgenic C57Bl/6 mice (human) (UniProt P43628); test: in vivo receptor occupancy in whole blood of KIRtgB6 mice, 20 mg/kg iv, for 14 days
[2] = target: human KIR2DL3 expressed on NK and T lymphocytes of KIR2DL3 transgenic C57Bl/6 mice (human) (UniProt P43628); test: in vivo receptor occupancy in KIRtgB6 mice, 10 mg/kg iv, for 8 days

UniProt P43628, sequence (P43628 22-341): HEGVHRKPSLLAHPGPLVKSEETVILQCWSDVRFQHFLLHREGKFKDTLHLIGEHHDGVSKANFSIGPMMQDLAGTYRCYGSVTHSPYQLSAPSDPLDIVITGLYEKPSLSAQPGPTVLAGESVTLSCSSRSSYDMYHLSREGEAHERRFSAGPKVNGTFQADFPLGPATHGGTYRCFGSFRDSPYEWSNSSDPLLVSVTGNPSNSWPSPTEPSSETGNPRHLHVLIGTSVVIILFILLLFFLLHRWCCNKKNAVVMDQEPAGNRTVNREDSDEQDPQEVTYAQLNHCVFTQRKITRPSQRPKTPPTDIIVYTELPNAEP

Anti-KIR antibody clone GL183
KIR receptor occupancy [1]: > 90%
KIR receptor occupancy [2]: > 90%
